Results published in PMC4550792.
Values belong to the substance of their own block, whether it stands above or below them.

Tests used:
Gαs-Rluc8 = Gαs-Rluc8 (UniProt P63092); assay: FRET or BRET; BRET in live HEK 293 cells transiently co-expressing Gαs-Rluc8 with Venus-Gγ2 or Venus-Gβ1 in the presence of hFSHR or hLHR; read every 0.5 s before and after injection of 10 nM hFSH or hCG; 96-well format
[1] = biological target: human luteinizing hormone receptor (wildtype) (human) (UniProt P22888)
hLHR-Rluc8 (human) = hLHR-Rluc8 (human) (UniProt P22888)

Venus-Gγ2, sequence (P59768 whole entry): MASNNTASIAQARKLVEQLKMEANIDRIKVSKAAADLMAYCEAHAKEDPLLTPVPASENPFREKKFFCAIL
UniProt P63092, sequence (P63092 whole entry): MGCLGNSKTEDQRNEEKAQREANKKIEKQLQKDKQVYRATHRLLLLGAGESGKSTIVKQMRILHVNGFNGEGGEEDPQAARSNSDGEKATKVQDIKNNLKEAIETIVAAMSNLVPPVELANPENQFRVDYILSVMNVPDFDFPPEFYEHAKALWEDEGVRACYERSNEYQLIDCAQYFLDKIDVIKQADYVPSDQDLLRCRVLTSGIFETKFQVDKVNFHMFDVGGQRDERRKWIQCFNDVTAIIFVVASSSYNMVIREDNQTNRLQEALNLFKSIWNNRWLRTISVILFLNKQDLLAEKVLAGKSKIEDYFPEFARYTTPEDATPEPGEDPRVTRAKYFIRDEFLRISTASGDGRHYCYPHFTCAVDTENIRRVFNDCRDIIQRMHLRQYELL

TANGO assay (tTA-dependent firefly luciferase reporter in HTLA cells, 14–20 h with increasing hFSH); EC50 of hFSH (FSHR/AVPR2-CT chimera): 5.7 nM
Substance: β-arrestin 2-TEV fusion protein (from UniProt P32121 1-409) (natural protein)

t1/2 of the hFSH-induced BRET decrease (with hFSHR) (Gαs-Rluc8): 16.8 s
Substance: Venus-Gγ2 (from UniProt P59768 1-71) (natural protein)

cAMP accumulation, HTRF assay in HEK 293 cells expressing hLHR; EC50 of hCG [1]: 0.0019 nM
cAMP production, BRET sensor CAMYEL in HEK 293 cells expressing hLHR; EC50 of hCG [1]: 0.0035 nM
receptor internalization, decrease of BRET between hLHR-Rluc8 and the plasma membrane marker Venus-KRas in HEK 293 cells; EC50 of hCG (hLHR-Rluc8 (human)): 4.9 nM
Substance: human chorionic gonadotropin (from UniProt P01215 25-116; P0DN86 21-165) (ligand)
